Key:
Settings in all cases: both partners purified
CYP11A1 [1] = biological target: T1, CYP11A1 (UniProt P00189 40-520); experiment: SPR; Biacore3000; CYP11A1 injected at 5-7.5 nM in HBS-EP buffer, at least three times each; bound CYP11A1 removed with 2 mM NaOH; in absence of cholesterol; Biaeval 4.1
T1 construct: CYP11A1 (cholesterol side-chain cleavage cytochrome P450); Single band at 55 kDa on SDS gel; Heme protein; also called recombinant CYP11A1; His-tagged CYP11A1; source: E. coli C43(DE3), co-transformed with groEL/groES chaperones, purified (IMAC Ni-NTA, SP-sepharose)
T1 sequence (looked up): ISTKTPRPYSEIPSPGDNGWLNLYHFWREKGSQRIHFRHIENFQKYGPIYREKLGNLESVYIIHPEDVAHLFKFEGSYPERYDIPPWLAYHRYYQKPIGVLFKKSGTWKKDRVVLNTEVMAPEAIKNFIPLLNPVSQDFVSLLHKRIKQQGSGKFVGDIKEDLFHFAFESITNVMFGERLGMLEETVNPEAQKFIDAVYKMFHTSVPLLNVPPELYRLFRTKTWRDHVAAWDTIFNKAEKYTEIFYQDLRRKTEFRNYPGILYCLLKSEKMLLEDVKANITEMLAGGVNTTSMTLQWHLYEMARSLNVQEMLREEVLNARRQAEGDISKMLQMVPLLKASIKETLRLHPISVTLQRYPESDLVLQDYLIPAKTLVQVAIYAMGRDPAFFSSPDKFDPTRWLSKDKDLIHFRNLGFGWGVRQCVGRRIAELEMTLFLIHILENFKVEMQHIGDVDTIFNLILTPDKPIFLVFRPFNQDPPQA

CYP11A1 [2] = biological target: T1, CYP11A1; experiment: as above; set-up: scale not given here
CYP11A1 [3] = biological target: T1, CYP11A1; experiment: SPR; Biacore3000; CYP11A1 injected at 5-7.5 nM in HBS-EP buffer; bound CYP11A1 removed with 2 mM NaOH; in the presence of cholesterol (CYP11A1:cholesterol 1:10 by the methods, 1:15 by the legend of Figure 7); Biaeval 4.1
CYP11A1 [4] = biological target: T1, CYP11A1; experiment: SPR; Biacore3000; CYP11A1 injected at 5-7.5 nM in HBS-EP buffer; bound CYP11A1 removed with 2 mM NaOH; in the presence of cholesterol and DHEAS (CYP11A1:cholesterol:DHEAS 1:10:50 by the methods, 1:15:75 by the legend of Figure 7); Biaeval 4.1
CYP11A1 [5] = biological target: T1, CYP11A1; experiment: SPR; Biacore3000; CYP11A1 injected at 5-7.5 nM in HBS-EP buffer; bound CYP11A1 removed with 2 mM NaOH; in the presence of cholesterol (CYP11A1:cholesterol 1:10 by the methods, 1:15 by the legend of Figure 7); Biaeval 4.1; set-up: scale not given here

- Kd (CYP11A1 [1]): 3.8 ± 0.55 nM
- koff (CYP11A1 [2]): 2.4 ± 0.99 s⁻¹
- Kd (CYP11A1 [3]): 3 ± 0.35 nM
- Kd (CYP11A1 [4]): 2.4 ± 0.05 nM
- koff (CYP11A1 [5]): 2.8 ± 0.09 s⁻¹
B1: bovine adrenodoxin (natural protein, UniProt P00257 59-186, looked up)
chain: SSSEDKITVHFINRDGETLTTKGKIGDSLLDVVVQNNLDIDGFGACEGTLACSTCHLIFEQHIFEKLEAITDEENDMLDLAYGLTDRSRLGCQICLTKAMDNMTVRVPDAVSDARESIDMGMNSSKIE
notes: adrenodoxin (Adx), bovine, the ferredoxin that transfers electrons to CYP11A1; [2Fe-2S] protein; also called Adx
